Test results from the supplement of paper PMC12764529.
± gives the half width of the 95% confidence interval.

assay: folding stability dG unfold from trypsin proteolysis; higher = more stable
Procedure, shortened: (§1)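 Unfolding free energy was derived, per protease or combined, against a sequence-predicted unfolded-state K50 and a shared folded-state K50, starting from K50 inferred by Bayesian fitting of sequencing counts. Digestion with trypsin and chymotrypsin was carried out on designed mini-proteins under 80 residues without cysteine in a PA-tagged cDNA display construct. Only designs with AlphaFold2 dimer inter-PAE above 15 were kept.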

Row | Sequence | folding stability dG unfold [kcal/mol]
1 | SNIRIEVDPPNGVIRVTYTFPGDSLSDIKDEIVEYIQKLGFPIEVDIDKIEPMNNYWRVTAYIKIPPGAISA [r9_347_TrROS] | 3.21 ± 0.095
2 | SAGGSAGGSSAEEVAASYPVTEVEYDPVTNTTTVTAEFPDSRIVLTYDPATGTVTTEVLPPLRSAGGSAGGS [r12_214_JUSTAS] | 0.508 ± 0.018
3 | SAGGMSVRFRFTDEDDRIHVDEIIPGEGIMRVVVEGEDRPLVFTIDAPPDAAIQLIRDLFDGPFEVEASAGG [r13_141_TrMRF] | -0.187 ± 0.26
4 | SAGVTITTNPESGTVTITIPFPDGSSATIELNYGGSLPTKPSITSFKVNPYDNGKPIIPADELVKKILSSAG [r5_842_TrMRF] | 0.96 ± 0.056
5 | SAGGSAGGSAMLVALVRVPGTDKPVVARLPREIGREAAEELLREAFPDAEVLEIVEVPEEELSAGGSAGGSA [r18_242_TrMRF] | 0.447 ± 0.031
6 | SAMTITVVADSAEEAERAARELAERLREALRELGIEGAEIEIKVTVLPAPPPERVLVRDPETDEWKEVPSAG [r14_475_TrROS_Hall] | 0.184 ± 0.14
7 | SAGGMGTPFTTLTVTLEFPSSESLEEAKEKAEELAEELRRAHPEVVSIEIEVSKEGDTYKVKLTVTIASSAG [r5_446_JUSTAS] | 4.37 ± 0.22
8 | SAGGSAGGMIKIKLKNGEVLYIDPKKPVLYFNKEKKIIPVKKDKIEKALKELEKKGFKIEKIDPSAGGSAGG [r6_337_TrMRF] | -0.249 ± 0.28
9 | MMKVKIEVRNEENEEVLTIELEVPEGEELTEEEILDLIAERLGLSKEELRKRVRIEYDEETKRIRIEIRIES [r1_285_TrROS_Hall] | 3.5 ± 0.053
10 | SAGGSAVPAGTTFELRYPEDEGSLTLTYDPSTNTVTITDGDKTTTYSSTSLEEVLKELGAELASRLSAGGSA [r15_500_JUSTAS] | 0.998 ± 0.041
11 | SAGGSSPPTVEVSFDPASGTLTITTPDGTTTYSVKSVTVTRLPPELTLITITLEDGTVLTFELVVASAGGSA [r2_268_JUSTAS] | 3.36 ± 0.15
12 | SAGGSAMITLEDIKALGPDNPIRTFPETGLVFVERPGELTLYKFDPKTNTVTKLKTFNSPEEKEKLSAGGSA [r15_6_JUSTAS] | 0.405 ± 0.035
13 | SAGGSAGGSAEKKTITVVVKVDENGKEKTPEELAKELEKAGFKVTKVTWDEENNYVTVTIEASAGGSAGGSA [r18_466_TrROS_Hall] | 1.72 ± 0.088
14 | SAGPVVEVKPLETQALPDGSVRVVAEVTIKDPNSEKTTVVTVEATARVAPDGRPVSIEEIVEKAIKELKSAG [r5_604_JUSTAS] | 0.801 ± 0.043
15 | SAELTIEITVPPGKSVEEVLAEAKALAEELGLEIVEVRVERDENGEVRVTVVIKLPEELTEEQRKALLESAG [r14_110_TrROS_Hall] | 3.06 ± 0.17
16 | SAGGSAGGSASLEEIKERAREEILKKHPDLPPDEPLTVTVKDPNSSNEYTITFNADGTVVESAGGSAGGSAG [r3_441_JUSTAS] | 0.677 ± 0.027

Row | Sequence | folding stability dG unfold [kcal/mol]
17 | SAGMEELAKELAEKLAEELPPGWKIVEIKVERLEDGTLRVRITIYRLDENGKLVEKREIEIEIPLEELSAGG [r19_28_TrROS_Hall] | 3.91 ± 0.22
18 | SAGGMTLEFELEAEPLEEVEKRVRELLRELGFPESVEITIEPKKPDDGSVIYPVKVTLNDPALEARLSAGGS [r8_85_JUSTAS] | 1.04 ± 0.038
19 | SAGGSAGGSAGTIRIKTKDGKTIEIELEGLSDEELENPEVLAEIKKALEDAGFEIVEVEPSAGGSAGGSAGG [r11_467_TrROS_Hall] | 2.19 ± 0.061
20 | SAGGSAGGSAGIIVRLPDGGWLIIDITMTRKYPPPDGKPKKVEFEFTIIISPKSGKIRIVSAGGSAGGSAGG [r11_271_TrROS] | 2.94 ± 0.2
21 | SAGGSAGGSKQILKKLGLPPGKEVQIMMTPNDMNELRDLPGIKSIKMEPRPDGYYQHSIRIDNSAGGSAGGS [r12_750_TrROS] | -1.31 ± 0.59
22 | SAGGMKIKITEVTVTRYYYDPKTGKLKKVEKVKVLVIEVELEPGQTAEEIAAALKKLFPDLKIVVVDSAGGS [r8_30_TrROS_Hall] | 4.14 ± 0.092
23 | SAGGMTLVIKVTNKDGSTLTITFDAETNTITITFPDGTTRTITVPADTTIEELIAALPPDAKVEILPASAGG [r13_696_TrROS_Hall] | 3.42 ± 0.073
24 | SAGGSAMPKKVVEGPVPPEDVEARIAELLEEDPNLTYVKFTYPELGSEVVIDFENGKVTKIERLLESAGGSA [r15_166_JUSTAS] | -0.217 ± 0.1
25 | SAGKAELVEVTIEGDKLTALFKIPETGGLVLAEAEFDNGIVKVKAKFYSPSGKPLGEAEFTLPASELKLSAG [r5_308_TrMRF] | 1.83 ± 0.1
26 | SAGGSAGGSMGLVVRREDGTLVLFRLGEDGLEEFTVPLEDWLTVPEEFFDAIPPEEVDEATPESAGGSAGGS [r12_793_TrMRF] | 1.4 ± 0.15
27 | SAGGSAGGSAGGPEAVIEELKKAGYTPKVDPNSSVVTVTYKNPDGTILTKTINVPPSLLSAGGSAGGSAGGS [r10_1173_JUSTAS] | -0.269 ± 0.25
28 | SGSVELSFDPSKPYKVKITATAPKDGTPYEVSGTTDPATGTITLPIRRPGSGEPLPPEELEFEIEVSPPESA [r9_928_JUSTAS] | -0.244 ± 0.071
29 | SAGMPKPLVLPVVLPDDGATVEVVFDPVEKRIEIRVFKPGHRERAREFAEGIAALFEELGYEVEITDDSAGG [r19_354_TrMRF] | 2.3 ± 0.084
30 | SMKPEEVKVIAEIEIEVNGKKIKIKIVKKKDGTVRVEIEVDGKKIEIEVKVKSKEEAKKILEELLKKLGISA [r9_758_TrROS_Hall] | 2.93 ± 0.4
31 | SAGGSAGGSAGGVKKGDKVTVLRVRLELKIKVEKTEDGSLKLTAELKLEISLVTVTAPDSAGGSAGGSAGGS [r10_297_TrROS_Hall] | 3.53 ± 0.14

assay: folding stability dG unfold (combined trypsin and chymotrypsin); higher = more stable
Procedure, shortened: as §1

Row | Sequence | folding stability dG unfold [kcal/mol]
32 | SNIRIEVDPPNGVIRVTYTFPGDSLSDIKDEIVEYIQKLGFPIEVDIDKIEPMNNYWRVTAYIKIPPGAISA [r9_347_TrROS] | 4.18 ± 0.086
33 | SAGGSAGGSSAEEVAASYPVTEVEYDPVTNTTTVTAEFPDSRIVLTYDPATGTVTTEVLPPLRSAGGSAGGS [r12_214_JUSTAS] | 0.654 ± 0.17
34 | SAGGMSVRFRFTDEDDRIHVDEIIPGEGIMRVVVEGEDRPLVFTIDAPPDAAIQLIRDLFDGPFEVEASAGG [r13_141_TrMRF] | 0.596 ± 0.095
35 | SAGVTITTNPESGTVTITIPFPDGSSATIELNYGGSLPTKPSITSFKVNPYDNGKPIIPADELVKKILSSAG [r5_842_TrMRF] | 1.39 ± 0.35
36 | SAGGSAGGSAMLVALVRVPGTDKPVVARLPREIGREAAEELLREAFPDAEVLEIVEVPEEELSAGGSAGGSA [r18_242_TrMRF] | 1.42 ± 0.031
37 | SAMTITVVADSAEEAERAARELAERLREALRELGIEGAEIEIKVTVLPAPPPERVLVRDPETDEWKEVPSAG [r14_475_TrROS_Hall] | 0.981 ± 0.11
38 | SAGGMGTPFTTLTVTLEFPSSESLEEAKEKAEELAEELRRAHPEVVSIEIEVSKEGDTYKVKLTVTIASSAG [r5_446_JUSTAS] | 4.7 ± 0.13
39 | SAGGSAGGMIKIKLKNGEVLYIDPKKPVLYFNKEKKIIPVKKDKIEKALKELEKKGFKIEKIDPSAGGSAGG [r6_337_TrMRF] | 0.0657 ± 0.15
40 | MMKVKIEVRNEENEEVLTIELEVPEGEELTEEEILDLIAERLGLSKEELRKRVRIEYDEETKRIRIEIRIES [r1_285_TrROS_Hall] | 2.87 ± 0.08
41 | SAGGSAVPAGTTFELRYPEDEGSLTLTYDPSTNTVTITDGDKTTTYSSTSLEEVLKELGAELASRLSAGGSA [r15_500_JUSTAS] | 1.22 ± 0.09
42 | SAGGSSPPTVEVSFDPASGTLTITTPDGTTTYSVKSVTVTRLPPELTLITITLEDGTVLTFELVVASAGGSA [r2_268_JUSTAS] | 4.52 ± 0.13
43 | SAGGSAMITLEDIKALGPDNPIRTFPETGLVFVERPGELTLYKFDPKTNTVTKLKTFNSPEEKEKLSAGGSA [r15_6_JUSTAS] | 0.863 ± 0.069
44 | SAGGSAGGSAEKKTITVVVKVDENGKEKTPEELAKELEKAGFKVTKVTWDEENNYVTVTIEASAGGSAGGSA [r18_466_TrROS_Hall] | 1.4 ± 0.18
45 | SAGPVVEVKPLETQALPDGSVRVVAEVTIKDPNSEKTTVVTVEATARVAPDGRPVSIEEIVEKAIKELKSAG [r5_604_JUSTAS] | 1.06 ± 0.057
46 | SAELTIEITVPPGKSVEEVLAEAKALAEELGLEIVEVRVERDENGEVRVTVVIKLPEELTEEQRKALLESAG [r14_110_TrROS_Hall] | 3.02 ± 0.21
